Assay results published in the nanobody polyreactivity screen of Harvey et al. (2022).

Assay: yeast display, Sf9 membrane polyspecificity reagent, FACS + sequencing; frameworks hold sequencing errors
In short: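 A synthetic nanobody library was expressed on Saccharomyces cerevisiae BJ5465 by galactose induction for 36–48 hours. The library was stained for 1 hour at 4 °C with 10% biotinylated, detergent-solubilized Sf9 membrane reagent and enriched with streptavidin microbeads before FACS. Low and high (top ~1%) gates were set on anti-HA fluorescence for expression and streptavidin fluorescence for reagent binding, and each polyreactivity label reflects the gate of origin.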

| Sequence | polyreactivity (PSR sort gate) |
| --- | --- |
| QVQLVESGGGLVQAGGSLRLSCAASGSTFYGYGMGWYRQAPGKERELVAAITGYGDTTYYADSVKGRFTISRDYAKNTVDLQMNSLKPEDTAVYYCNARWHAEYDYWGQGTQVTVSS | low polyreactivity |
| QVQLVESGRGLVQAGGSLRLSCAASGSMFGKHVMGWYRQAPGKERELVAAISRSGGRTYYADSVKGRFTISRDNANNTVYLQMNTLKPEDTAVYYCAADGQPIGQQTYDYWGQGTQVTVSS | high polyreactivity |
| QVQLVESGGGLVQAGGILRLSCAASGSTFTGYAMGWYRQAPGKERELVAAISSSGGRTYYAASVKGRFTISRDNANNTVYLQMNSLKPEVTAVYYCATDHYRYGGYSWGQGTEVTVSS | high polyreactivity |
| QVQLVESGGGLVQAGGSLRLSCAASGSIFGEIAMGWYRQAPGKERELVAAISSGVSTNYADSVKGRFTISRDNAKNTVYLQMNSLKPEDTAVYYCAVDSLPNSPYDYWGHGTQVTVSS | low polyreactivity |
| QVQLVESGGGLVQAGGSLRLSCADSGFTFYLYAMGWYRQAPGKERALVAAITGSGGSKYYADSVKGRFTISRYNAKNTVYLQMNSLKPEDTAVYYCAAVFKDSRYQYGFGYDYWGQGTQVTVSS | high polyreactivity |
| QVQLVESGGGLVQAGGSLRLSCAASGRILGRYAMGWYRQAPGKEREVVATITSGDDTNYADSVKGRFTISRDHAKNTVYLQMNSLKPEDTAVGFWGQGSQVTVSS | low polyreactivity |
| QVQLVESGGGLVQAGGSLRLSCAASGSTFRSYAMGWYRQAPGKERESVARISYRTGSTYYADSVKGRFTISRDNAKNTVYLQMNSLEPEDTAVYYCATRGSYVGGLYDYWGQGTQVTVSS | high polyreactivity |
| QVQLVESGGGLVQAGGSLRLSCAAYGLIFPVYAMGWYRQAPGKEREFVASIWRGGTTYYADSVKGRFTISRDNAKNTVYLQMNRLKPEDTAVYYCAARYYPRGLVFPFTKYDYWGQGTQVTVSS | high polyreactivity |
| QVQLVESGGGLVQAGGSLRLSCAASGIIFYYYGMGWYRQAPGKEREFVAAISTSGGNTYYADSVKGRFTISRDNAKNTVYLQMNSLKPEDTAVYYCAADDLAWGDAGVDYWGQGTEVTVSS | low polyreactivity |
| QVQLQESGGGLVQAGGSQRLSCAASGYIFYFQYMGWYRKAPGKEREFVAAISDGANTNYADSVKGRFTISRDNAKNTEYLQLNSLKPEDTAVYYCAVYADENYYYIYWGQGTQVNVSS | low polyreactivity |
| QVQLVESGGGLVQAGGSLRLSCAASGRTFFPNAMGWYRPAPGKERELVAAITWRGGSTYYADSVKGRFTISRDNAKNTVYLQMNSLKPEDTAVYYCAARDNPRWPRYYRGRTYDYWGQGTQVTVSS | high polyreactivity |
| QVQLVESGGGLVQAGGSLRLSCAASGLIFRRYAMGWYRQAPGKERELVAAISRTGGTTYYADSVKGRFTISRDNAKNTVYLQMNSLKPEDTAVYYCAAAGQGPDYDYWGQGTQVTVSS | high polyreactivity |
| QVQLQESGGGLVQAGGSLRLSCAASGYIFPRIDMGWYRQAPGKEREFDAGISYDAITNYADSVKGRFTISLDNAKNTVYLQMNSLKPEDTAVYYCAVSYYGTPLFTYWGQGTQVTVSS | high polyreactivity |
| QVQLVESGGGLVQAGGSLRLSCAASGRIFSGYAMGWYRQAPGKERELVAAITSGGSTNYADSVKGRFTISRDNAKNTVYLQMNSLKPEDTAVYYCAADSREVSTTAYYYWGQRTQVTVSS | low polyreactivity |
| QVQLVESGGGLVQAGGSLRLSCAASGSTFFKYAMGWYRQAPGKERELVAAISYSGGSTYYADSVKGRFTISRDNAKNTVYLQMNSLKPVDTAVYYCAARVQNRYRPYYYWGQGTQVTVSS | high polyreactivity |
| QVQLVESVRGLVQAGGSLRLICDASGRTFPRYAKGWNRQAPGKEWEFVAAIRYSGDNTYYADSVKGRFTISRDNAKNTVYLQMNSLKPEDTAVYYCAARTYGNYRYSTYYYWGQGTQVTVSS | high polyreactivity |
| QVQLVESGGGLVQAGRSLRLSCASSGSPFDPYGKGRYRQAPGKEWEWVAAITASGRTNYADSVKGRFTISRDTAKNTVYLQMNSLKPEDTAFYYCATRKELYFYRGYEYWGQGTQVTVSS | low polyreactivity |
| QVQLVESGGGLFQAGGSLRLSCAASGRIFYTNVMGWYRPAPGKERELVAAISTGGGRTYYADSVKGRFTISRDYAKNTVYLQMNSLKPEDTAVYYCAADWRTKGYDSLGQGTQVTVSS | high polyreactivity |
| QVQLVESGGGLVQAGGSLRLSCAASGSTFGLNAMGWYRQAPGKERELVAAISTSGGSTYYADSVKGRFTISRDNAKNTVYLQMNSLKPEDTAVYYCAAEVVAGYDYSQYYYWGQGTQVTVSS | low polyreactivity |
| QVQLVESVGGLVQAGGSLRLSSAASGLIFDVYPMGWYSQGPGKERELVAAISTSGGRTYYADSVKGRFTISRDNAKNTVYLQMTSLKPEDTAVYYCAAVSPHNRYGYKYDYWGQGTQVTVSS | high polyreactivity |
| QVQLVESGGGLVQAGGSLRLSCAASGITFTVYAMGWYRQAPGKERELVAAITSTGSTNYADSVKGRSTISRDNAKNTVYLQMNSLKPEDTAVYYCAADRQITVYAYDYWGQGTQVTVSS | low polyreactivity |
| QVQLVESGGGLVQAGGSLRLSCAASGNIFKHYAMGWYRQAPGKERELVAAITWSGGSTHYADSVKGLFTISRDNAKNTVYLQMNSLKPEDTAVYYCAARGWWPGTKWTRYDYWGQGTQVTVSS | high polyreactivity |

| Sequence | polyreactivity (PSR sort gate) |
| --- | --- |
| QVQLVESGGGLVQAGGSLRLSCAASGYIFYFNAMAWYRQAPGKEMELVAVISDRDDSTYYADSVKGRFTISRDNAKNTVYLHMNSLKPEDTAVYYCAADGDTYYNYYHWGQGTQVTVSS | low polyreactivity |
| QVQLVESGGGLVQAGGSLRLSCAASGSISGYYDMGWYRQAPGKEREFVAAISLSTTSTYYADSVKGRFTISRDNAKNTVYLQMNSLKPEDTAVYYCATDIVGPHFDYWGQGTQVTVSS | low polyreactivity |
| QVQLVESGGGLVQAGGSLRLSCAASGSIFGVNMGWYRQAPGKERELVASITSGGSTNYADSVKGRFTISRDNAKNTVYLQMNSLKPEDTAVYYCATDRYVWGQGTQVTVSS | low polyreactivity |
| QVQLVESGGGLVQAGGSLRLSCAASGITFTGYAMGWYRQAPGKERELVAAISVSTVSTYYADSVKGRFTISRDNAKNTDYLQMTSLKPEDTAVYYCNADATDSYPEKDEHDSWGQGTQVTVSS | low polyreactivity |
| QVQLVDSGGGLVQAGGSLRLSCAASGYTFRYYAMGWYRQEPGKERELVAAITRSGTTYYADSVKGRFTISRDNAKNTVYIQMNSLKTDDTAVYYCNTRVTGNRLGYYYWGQGTQVTVSS | high polyreactivity |
| QVQLVESGGGLVQAGGSLRLSCAASGRTFENYAMGWYRQAPGKERELVAAISKSGGSTYYADSVKGRFTISRDNAKNTVYLQMNSLKPEDTAVYYCNARPGQSGARFGYWGQGTQVTVSS | high polyreactivity |
| QVQLVESGGGLVQAGGSLSLSCAASGGTFSYYAMGWYRQAPGKGELVAAISSGGSTNYADSVKGRFTISRDNAINTAYLQMNSLKPEDTAVYYCADRYRFWGPYNYWGQGTQVTVSS | high polyreactivity |
| QVQLVESGVGLVQAGGSLRLSCAASGSTLFVYAMGRYRQAPGKERELVAAISRGGSTYYADSVKGRFTISRDNAKNTVYLQMNSLKPEDTAVYYCAAVGGYPRYGYWGQGTQVTVSS | high polyreactivity |
| QVQLVESGGGLVQAGGSLRLSFAASGITFASNTMGWYRQAPGKERELVAAITRGDNTYYADSVKGRFTISRDNAKNTVYLQMKSLKPEDTAVYYCAKDPHGVEPVPDGYDYWGQGTQVTVSS | low polyreactivity |
| QVQLVESGGGLVQAGGSLRLSCAASGFTFWDYDLGWSRQATGKERELVAAISDNDGSTDYADSVKGRITISRDNVKNTVFLQMNRLKPEESAVYYCNAEIEMPSKEGDYWGLGTQVTVSS | low polyreactivity |
| QVQLVESGGGLVQAGGSLRLSCAASGSTFITYAMGWYRQAPGKERELVAAISTGGSTYYADSVKGRFTISRDNAKNTVYLQMNSLKPEDTAVYYCNAYSSSRGSTLQYSLQYDYWGQGTQVTVSS | low polyreactivity |
| QVQLVESGGGLVQAGGSLRLSCAASGRTLIGNAMGWYRQAPGKEREFVAAITRSGGDTYYADSVKGRFTISRDNAKNTVYLQMNSLKPEDTAVYYCAADGQLHMDYWGQGTQVTVSS | high polyreactivity |
| QVQLVESGGGLVQAGGSLRLSCAASGFIFGYYAMGWYRQAPGKERELVAAISTRGSTYYADSVKGRFTISRDNAKYTVYLQMNSLKPEDTAVYYCNAGWGYRRDYWGQGTQVTVSS | high polyreactivity |
| QVQLVESGGGLVQAGGSLRLSCAASGSTFDRNVMGWYRQAPGKERELVAAISRVSSTNYADSVKGRFTISRDNAKNTVYLQMNSLKPEDTAVYYCAVDRAGSIMNYWGQGTQVTVSS | low polyreactivity |
| QVQLEESVGGLVQAGGSLRLSCAASGFTFHRYAMGWYTQAPGKERELVAGITRRSGSTFYADSVQGRFTISRDNAKNTVFLQMNSLKPEDTAVYYCAATVPGLHWIYDYWGQGTQVTVSS | high polyreactivity |
| QVQLVESGGGLVQAGGSLRLSCAASGFIFGEYTMGWYRQAPGKEREFVAAISWSGGSTSYADSVKGRFTISRDNAKNTVYLQMNSLKPEDTAVYYCAARYGSDYDYWGQGTQVTVSS | low polyreactivity |
| QVQLVESGGGLVQAGGSLRLSCAASGRIFDDYAMGWYRQAPGKERELVAAISWSGGSTYYADSVKGRFTISRDNAKNTVYLQMNSLKPEDTAVYYCAAPYHSYKRIGYDYWGQGTQVTVSS | low polyreactivity |
| QVQLVESGRALVQAGGSLRLSCAASGRICGIYSMGWNRQAPGKEREFVAAISDRSGSRTYYADSVKGRFTISRDNAKNTVYLQMNSLKPEDTAVYYCNARHQYQTLYPGGYYWGQGTQVTVSS | high polyreactivity |
| QVQLVETGGVLVQAGGSLSLSCAASGSTFGWYVMGWYRQAPGKERELVAAITYSGDSTYYADSVKGRFTISRDNAKNTVYLQMNSLKPEDTAVYYCAADLSGYGKRYDYWGQGNQVTVSS | low polyreactivity |
| QVQHVESGGGLVQAGGSLRLSCAASGLIFVRYAMGWYRQAPGKERELVATITWSGGTTYADSVKGRFTISRDNAKNTVYLQMNSLKPEDTAVYYCAVEWPAWTDSDYPVGGHAFGYWGQGTQVTVSS | low polyreactivity |
| QVQLVETAGGLVKAGCSLRLSCAASGRIFYIYAMAWYRQSPGKESELLAAISTGGGGTYYADSVKGRFTISRDNAKNTVYLQMNSLKPEDTAVYYCAATSPLSLDEDYWGQGTQVTVSS | high polyreactivity |
